Laboratory results as given in publication PMC5343488, “Epilepsy and intellectual disability linked protein Shrm4 interaction with GABABRs shapes inhibitory neurotransmission” (Nature Communications, 2017).

Biological target: T1, GST-PDZ (Shrm4-PDZ domain, aa 1–91) (human, UniProt Q9ULL8 1-91)
T1 construct: Shrm4 (Shroom4), encoded by KIAA1202, PDZ domain, aa 1-91; in pGEX-4T-1, which should put GST at the N-terminus; source: E. coli BL21, purified using standard procedures
T1 sequence (looked up): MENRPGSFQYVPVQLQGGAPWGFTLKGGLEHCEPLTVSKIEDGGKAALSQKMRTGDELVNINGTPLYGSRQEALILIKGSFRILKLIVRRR
Test: pull-down; competition: synthetic Tat-859–870 peptide added to the HEK293 lysate before the pull-down of GABAB1a by purified GST-PDZ; 10 μM or different concentrations
Conditions: both partners purified

B1: Tat-859–870 peptide (peptide)
peptide: YGRKKRRQRRRITRGEWQSET
notes: stretch of the GABAB1 C-tail named 859–870; also called Tat-peptide; Tat-859–870 (active) peptide; source: synthetic peptide (bought: Primm, Italy, and China Peptide, China)
- binding result: binds
